Measurements reported in patent US20240116985A1, “STAPLED PEPTIDES AND METHODS THEREOF” (priority 2020, published 2024).
Starred links: 1 amine or outer side, 2 acyl side, 3 side chain; linkers in the order of their positions; H or OH if unused. Positions of bridges follow the written chain, without caps; N, C: chain ends. Non-standard residues stand in square brackets, D forms with d. Primed or numbered codes have the meaning given here. No end group written: not given here. PyrS2″ = (S)-3-amino-1-((pent-4-en-1-yloxy)carbonyl)pyrrolidine-3-carboxylic acid (stapling residue), C=CCCCOC(=O)N1CC[C@@](N[*:1])(C(=O)[*:2])C1; B5(16) = 2-amino-2-(pent-4-en-1-yl)hept-6-enoic acid = 2,2-bis(4-pentenyl)glycine (stitching residue), C=CCCCC(CCCC=C)(N[*:1])C(=O)[*:2]; B5(4) = 2,2-bis(4-pentenyl)glycine = 2-amino-2-(pent-4-en-1-yl)hept-6-enoic acid (stitching residue), C=CCCCC(CCCC=C)(N[*:1])C(=O)[*:2]; B5(5) = 2,2-bis(4-pentenyl)glycine, 2-amino-2-(pent-4-en-1-yl)hept-6-enoic acid (stitching residue), C=CCCCC(CCCC=C)(N[*:1])C(=O)[*:2]; PyrS2 = (S)-3-amino-1-((pent-4-en-1-yloxy)carbonyl)pyrrolidine-3-carboxylic acid, C=CCCCOC(=O)N1CC[C@@](N[*:1])(C(=O)[*:2])C1; SPip2 = 4-amino-1-((pent-4-en-1-yloxy)carbonyl)piperidine-4-carboxylic acid, C=CCCCOC(=O)N1CCC(N[*:1])(C(=O)[*:2])CC1; B5(25) = 2-amino-2-(pent-4-en-1-yl)hept-6-enoic acid (stitching residue), C=CCCCC(CCCC=C)(N[*:1])C(=O)[*:2]; B5 = 2-amino-2-(pent-4-en-1-yl)hept-6-enoic acid, C=CCCCC(CCCC=C)(N[*:1])C(=O)[*:2]; Phe(3-COOH) = N[C@@H](Cc1cccc(C(=O)O)c1)C(=O)O; Phe(2-CF3) = N[C@@H](Cc1ccccc1C(F)(F)F)C(=O)O; Phe(2-Cl) = N[C@@H](Cc1ccccc1Cl)C(=O)O; Phe(2-Me) = Cc1ccccc1C[C@H](N)C(=O)O; Bta = N[C@@H](Cc1csc2ccccc12)C(=O)O; αAllylPro = C=CC[C@@]1(C(=O)O)CCCN1; tBuAla = CC(C)(C)C[C@H](N)C(=O)O; 3Thi = N[C@@H](Cc1ccsc1)C(=O)O; Cha = N[C@@H](CC1CCCCC1)C(=O)O; Thr(ol) = C[C@@H](O)[C@H](N)CO; Aib = CC(C)(N)C(=O)O

Key:
[1] = target: full-length beta-Catenin (Uniprot ID P35222) (Homo sapiens (Human)) (UniProt P35222); experiment: fluorescence polarization competition; full-length beta-catenin, competitor 5FAM-TCF4(10-53) probe
Target sequence in this assay (P35222 2-781 limits assumed): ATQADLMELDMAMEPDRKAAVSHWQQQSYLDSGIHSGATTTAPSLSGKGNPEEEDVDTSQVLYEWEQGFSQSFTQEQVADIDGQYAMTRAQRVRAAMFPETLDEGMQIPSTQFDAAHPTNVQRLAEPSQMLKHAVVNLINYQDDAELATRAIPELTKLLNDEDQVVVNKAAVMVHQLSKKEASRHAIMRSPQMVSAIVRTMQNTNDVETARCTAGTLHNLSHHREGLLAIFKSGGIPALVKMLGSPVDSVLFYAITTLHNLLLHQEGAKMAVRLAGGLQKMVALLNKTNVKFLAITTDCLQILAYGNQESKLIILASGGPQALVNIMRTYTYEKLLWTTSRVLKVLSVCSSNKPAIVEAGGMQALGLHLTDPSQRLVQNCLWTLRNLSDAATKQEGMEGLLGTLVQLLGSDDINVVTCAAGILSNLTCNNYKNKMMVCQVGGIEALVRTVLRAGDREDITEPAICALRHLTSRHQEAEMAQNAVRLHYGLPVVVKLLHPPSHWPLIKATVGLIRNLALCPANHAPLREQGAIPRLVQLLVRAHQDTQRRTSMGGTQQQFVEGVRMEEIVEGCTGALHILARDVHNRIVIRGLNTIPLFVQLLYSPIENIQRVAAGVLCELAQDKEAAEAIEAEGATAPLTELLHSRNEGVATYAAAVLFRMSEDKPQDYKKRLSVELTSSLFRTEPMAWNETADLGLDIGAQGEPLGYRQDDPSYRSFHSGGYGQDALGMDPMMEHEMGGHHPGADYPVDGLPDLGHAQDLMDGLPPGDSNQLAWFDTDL

[2] = target: B-cat-Halo (beta-catenin HaloTag NanoBRET construct expressed in HEK293 cells) (UniProt P35222); experiment: NanoBRET Abs IC50 in HEK293 cells; Bcat-Halo, competitor TCF4-Luc
[3] = target: full-length beta-Catenin (Uniprot ID P35222) (Homo sapiens (Human)) (UniProt P35222); experiment: FP competition, full-length beta-catenin, competitor probe 5FAM-TCF4 10-53
Target sequence in this assay (P35222 2-781 limits assumed): as above

Bcat-Halo [4] = target: Bcat-Halo (UniProt P35222); experiment: NanoBRET absolute IC50, HEK293 cells, Bcat-Halo/TCF4-Luc engagement
Bcat-Halo [5] = target: Bcat-Halo (UniProt P35222); experiment: NanoBRET (Abs IC50) in HEK293 cells; Bcat-Halo / TCF4-Luc
[6] = target: full-length beta-Catenin (Uniprot ID P35222) (Homo sapiens (Human)) (UniProt P35222); experiment: FP competition; full-length beta-catenin + 5FAM-TCF4(10-53) probe
Target sequence in this assay (P35222 whole entry, one chain of several): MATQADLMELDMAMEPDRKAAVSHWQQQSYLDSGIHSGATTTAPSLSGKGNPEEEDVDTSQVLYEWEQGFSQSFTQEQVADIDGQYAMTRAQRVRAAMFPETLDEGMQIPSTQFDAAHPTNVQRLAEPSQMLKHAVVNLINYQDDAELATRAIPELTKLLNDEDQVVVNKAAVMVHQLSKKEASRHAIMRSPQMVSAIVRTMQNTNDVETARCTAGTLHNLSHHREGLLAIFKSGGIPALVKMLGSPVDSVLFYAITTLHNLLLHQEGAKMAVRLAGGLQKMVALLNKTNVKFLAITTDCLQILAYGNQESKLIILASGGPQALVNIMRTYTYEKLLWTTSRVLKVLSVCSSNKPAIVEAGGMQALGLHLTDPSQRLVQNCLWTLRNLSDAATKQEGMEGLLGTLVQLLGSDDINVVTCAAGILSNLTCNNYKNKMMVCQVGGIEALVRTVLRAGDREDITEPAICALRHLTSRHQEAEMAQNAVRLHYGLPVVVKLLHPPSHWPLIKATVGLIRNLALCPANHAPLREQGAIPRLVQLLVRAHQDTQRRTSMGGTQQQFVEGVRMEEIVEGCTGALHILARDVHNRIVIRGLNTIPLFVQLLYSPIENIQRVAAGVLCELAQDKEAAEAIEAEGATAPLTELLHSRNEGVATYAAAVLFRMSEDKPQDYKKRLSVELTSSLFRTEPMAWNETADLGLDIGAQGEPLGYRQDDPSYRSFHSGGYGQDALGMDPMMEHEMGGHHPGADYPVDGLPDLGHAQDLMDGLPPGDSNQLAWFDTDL

[7] = target: full-length beta-Catenin (Uniprot ID P35222) (Homo sapiens (Human)) (UniProt P35222); experiment: fluorescence polarization competition; full-length beta-catenin, 5FAM-TCF4 10-53 probe as competitor
Target sequence in this assay (P35222 whole entry, one chain of several): as above

Bcat-Halo [8] = target: Bcat-Halo (UniProt P35222); experiment: NanoBRET Abs IC50; B-cat-Halo / TCF4-Luc engagement in HEK293 cells
[9] = target: full-length beta-Catenin (Uniprot ID P35222) (Homo sapiens (Human)) (UniProt P35222); experiment: fluorescence polarization competition; full-length beta-catenin with 5FAM-TCF4(10-53) probe, peptide titrated
Target sequence in this assay (P35222 whole entry, one chain of several): as above

[10] = target: full-length beta-Catenin (Uniprot ID P35222) (Homo sapiens (Human)) (UniProt P35222); experiment: cell-based or functional assay
Bcat-Halo [11] = target: Bcat-Halo (UniProt P35222); experiment: NanoBRET Abs IC50, HEK293 cells transfected with Bcat-Halo and TCF4-Luc (competitor: TCF4-Luc); cellular assay
[12] = target: full-length beta-Catenin (Uniprot ID P35222) (Homo sapiens (Human)) (UniProt P35222); experiment: fluorescence polarization competition; 10 nM full-length beta-catenin + 10 nM 5FAM-TCF4 10-53 as competitor probe
Target sequence in this assay (P35222 2-781 limits assumed): as the sequence (P35222 2-781 limits assumed) above

[13] = target: full-length beta-Catenin (Uniprot ID P35222) (Homo sapiens (Human)) (UniProt P35222); experiment: fluorescence polarization competition; competitor 5FAM-TCF4(10-53) probe on full-length beta-catenin
Target sequence in this assay (P35222 whole entry, one chain of several): as the sequence (P35222 whole entry, one chain of several) above

Bcat-Halo, sequence (P35222 whole entry): as the sequence (P35222 whole entry, one chain of several) above
B-cat-Halo (beta-catenin HaloTag NanoBRET construct expressed in HEK293 cells), sequence (P35222 whole entry): as the sequence (P35222 whole entry, one chain of several) above

Row | EC50 [1] [nM] | IC50 [2] [nM] | IC50 (Bcat-Halo [5]) [nM] | IC50 [6] [nM] | IC50 [7] [nM] | IC50 (Bcat-Halo [8]) [nM] | Binder | also measured
1 | 10 | 3600 |  |  |  |  | [αAllylPro]D[tBuAla][B5(4)]D[Phe(3-COOH)]AAFF[PyrS2″][Phe(2-Cl)][Bta]Q-NH2 (staple 1-4, 4-11) [I-1338] | IC50 [3]: 10 nM; IC50 (Bcat-Halo [4]): 3600 nM
2 |  |  | 26200 | 35 |  |  | Ac-[αAllylPro]D[tBuAla][B5(5)]D[Phe(3-COOH)]AAFS[PyrS2″][Phe(2-Cl)][Bta]F-NH2 (staple 1-4, 4-11) [I-2029] | 
3 |  |  | 20900 | 16 |  |  | Ac-[αAllylPro]D[tBuAla][B5(5)]D[Phe(3-COOH)]AAFN[PyrS2″][Phe(2-Cl)][Bta]V-NH2 (staple 1-4, 4-11) [I-2032] | 
4 |  |  |  |  | 27 | 29400 | Ac-[αAllylPro]D[tBuAla][B5]D[Phe(3-COOH)]QAFL[SPip2][3Thi][Bta]A-NH2 (staple 1-4; staple 4-11 (inferred); also: later-eluting HPLC staple isomer composition) [I-2593] | 
5 |  |  | 9700 | 26 |  |  | Ac-[αAllylPro]D[tBuAla][B5(5)]D[Phe(3-COOH)]AAFA[PyrS2″][Phe(2-Cl)][Bta][dA]-NH2 (staple 1-4, 4-11) [I-2026] | 
6 |  |  |  |  | 7 | 2700 | Ac-[αAllylPro]D[tBuAla][B5(25)]D[Phe(3-COOH)][Aib]AFS[PyrS2″][3Thi][Bta]SA-NH2 (staple 1-4, 4-11 (inferred); not fully specified; printed as Ac-PL3-Asp-Npg-B5-Asp-3COOHF-Aib-Ala-Phe-Ser-PyrS2-3Thi-BztA-Ser-Ala-NH2) [I-2577] | 
7 | 159 | 6800 |  |  |  |  | [αAllylPro]D[tBuAla][B5(4)]D[Phe(3-COOH)]AAFF[PyrS2″][Phe(2-Cl)][Bta][Thr(ol)] (staple 1-4, 4-11) [I-1340] | IC50 [3]: 159 nM; IC50 (Bcat-Halo [4]): 6800 nM
8 |  |  |  |  |  |  | Ac-[αAllylPro]D[Cha][B5(5)]DDAAFS[PyrS2″][Phe(2-Cl)][Bta]Q-NH2 (staple 1-4, 4-11) [I-1044] | IC50 [9]: 5 nM; DLD1 4% Abs IC50 [10]: 14500 nM; DLD1 reporter assay Abs IC50 [10]: 20000 nM; IC50 (Bcat-Halo [11]): 17600 nM; EC50 [12]: 5 nM
9 |  |  |  |  | 41 | 4700 | Ac-[αAllylPro]D[tBuAla][B5]D[Phe(3-COOH)][Aib]AFK(Ac)[PyrS2][Phe(2-CF3)][Bta]AA-NH2 (staple 1-4, 4-11; not fully specified; printed as Ac-PL3-Asp-Npg-B5-Asp-3COOHF-Aib-Ala-Phe-AcLys-PyrS2-2F3MeF-BztA-Ala-Ala-NH2) [I-2579] | 
10 | 12 | 6200 |  |  |  |  | [αAllylPro]D[tBuAla][B5(4)]DDAAFF[PyrS2″][Phe(2-Me)][Bta]Q-NH2 (staple 1-4, 4-11) [I-1326] | IC50 [13]: 12 nM
11 | 35 | 7000 |  |  |  |  | [αAllylPro]D[tBuAla][B5(4)]D[Phe(3-COOH)]AAFF[PyrS2″][Phe(2-CF3)][Bta]S-NH2 (staple 1-4, 4-11) [I-1342] | IC50 [3]: 35 nM; IC50 (Bcat-Halo [4]): 7000 nM
12 | 17 | 3500 |  |  |  |  | [αAllylPro]D[tBuAla][B5(4)]D[Phe(3-COOH)]AAFF[PyrS2″][Phe(2-CF3)][Bta]Q-NH2 (staple 1-4, 4-11) [I-1341] | IC50 [3]: 17 nM; IC50 (Bcat-Halo [4]): 3500 nM
13 |  |  | 7800 | 32 |  |  | Ac-[αAllylPro]D[tBuAla][B5(5)]D[Phe(3-COOH)]AAFA[PyrS2″][Phe(2-Cl)][Bta]A-NH2 (staple 1-4, 4-11) [I-2023] | 
14 |  |  | 17900 | 78 |  |  | Ac-[αAllylPro]D[tBuAla][B5(5)]D[Phe(3-COOH)]AAFA[PyrS2″][Phe(2-Cl)][Bta]V-NH2 (staple 1-4, 4-11) [I-2024] | 
15 | 33 | 5200 |  |  |  |  | [αAllylPro]D[tBuAla][B5(4)]D[Phe(3-COOH)]AAFF[PyrS2″][Phe(2-Cl)][Bta]S-NH2 (staple 1-4, 4-11) [I-1339] | IC50 [3]: 33 nM; IC50 (Bcat-Halo [4]): 5200 nM
16 |  |  |  |  | 5 | 5500 | Ac-[αAllylPro]D[tBuAla][B5]D[Phe(3-COOH)][Aib]AFK(Ac)[PyrS2][3Thi][Bta]AA-NH2 (staple 1-4, 4-11; not fully specified; printed as Ac-PL3-Asp-Npg-B5-Asp-3COOHF-Aib-Ala-Phe-AcLys-PyrS2-3Thi-BztA-Ala-Ala-NH2) [I-2578] | DLD1 4% Abs IC50 [10]: 4100 nM
17 |  |  |  |  | 37 | > 20000 | Ac-[αAllylPro]D[tBuAla][B5]D[Phe(3-COOH)]QAFL[SPip2][3Thi][Bta]A-NH2 (staple 1-4; staple 4-11 (inferred); also: earlier-eluting HPLC staple isomer composition) [I-2592] | 
18 |  |  |  |  |  |  | Ac-[αAllylPro]D[Cha][B5(5)]DDAAFS[PyrS2][Phe(2-Cl)][Bta]S-NH2 (staple 1-4, 4-11) [I-1050] | IC50 [9]: 5 nM; DLD1 reporter assay Abs IC50 [10]: 11200 nM; IC50 (Bcat-Halo [11]): 24800 nM; EC50 [12]: 5 nM
19 |  |  | 17600 | 32 |  |  | Ac-[αAllylPro]D[tBuAla][B5(5)]D[Phe(3-COOH)]AAFS[PyrS2″][Phe(2-Cl)][Bta]V-NH2 (staple 1-4, 4-11) [I-2028] | 
20 |  |  |  |  | 6 | 16100 | Ac-[αAllylPro]D[tBuAla][B5(25)]D[Phe(3-COOH)][Aib]AF[dS][PyrS2″][3Thi][Bta][dS]A-NH2 (staple 1-4, 4-11 (inferred); not fully specified; printed as Ac-PL3-Asp-Npg-B5-Asp-3COOHF-Aib-Ala-Phe-dSer-PyrS2-3Thi-BztA-dSer-Ala-NH2) [I-2576] | 
